The text below walks through data of article PMC6380602, “The polymeric immunoglobulin receptor-like protein from Marsupenaeus japonicus is a receptor for white spot syndrome virus infection” (PLoS Pathogens, 2019).

For orientation: stoichiometry N means a count of units in the complex or per binding partner.

The data set concerns the molecule itself. The data set is described as follows: cross-linking; BS3 (5 mM, 2 h, room temperature) on hemocytes of shrimp 30 min after WSSV injection, SDS-PAGE, western blotting with anti-MjpIgR antibodies; oligomer size by molecular mass.

B1: native MjpIgR (Marsupenaeus japonicus polymeric immunoglobulin receptor-like protein) (receptor, UniProt A0A3S8D7Y1 1-562, looked up)
chain: QEYSVDEPNNRDVVFNGVQSSDVSLIFDDADIIVNPGERLDLNCGFQGQYRHCIWELEGAKPIQVQDVYDDVHPGMSRPEVSEGNECGIVINSVSTEQHGKWTCRVFITGNSLEGSKKVIVTVKPTYPILEVDNSQLLEVTSDAETPVKCVVAAARPAVGIRWFLGDKDVTVMAETEETPTDNEGMYKSISTLRRTFEPMENGMMLVCSVSHKTLTVPENASIPLNVVFKPVEKPVSTYYQIRPGSDYEVKLNFSANPPPTRKEWRYGDTFQNIAVSIEIPGAKDRYETYIEELGNGMYTATLRIAGFKEEDANQRYMLVVQNDLGETSYKVRLSMDDAPKDGDSETRDHDKNPSTEYSVSEGIVFDDDTMSNTLSGGAVAGIVIVVLIIVTAVAAAGYARYRQMFCFAPVVTPDPEEGKETKEEHSDTESARGANTTRAANLKNSLGRLTQVFKKPKKEQETKLENIGDDEKRSLTTEDPKKGSPIKEQNVDDKEVVYAELDLGKSESDKKTEVKAEDKTEYAQIVGTVTDNREDEKKE
notes: also called pIgR-like protein; source: endogenous, hemocytes of M. japonicus 30 min after WSSV injection
Regarding B1, the “stoichiometry N” value was found to be 4.
